According to patent US10144929B2, “Polypeptide inhibitors of Smad3 polypeptide activities” (Mayo Foundation for Medical Education and Research, priority 2016, dated 2018):

B1: TAT-SH3: TAT-SNX9(SH3) fusion polypeptide containing the full length SH3 domain (amino acids 1 to 62) (protein)
chain: MATKARVMYDFAAEPGNNELTVNEGEIITITNPDVGGGWLEGRNIKGERGLVPTDYVEILPS
modifications: left off: small tags and cut ends
B2: TAT-LC: SNX9 LC (low complexity) domain fused to cell penetrating TAT polypeptide; negative control (protein)
chain: DGKDQFSCGNSVADQAFLDSLSASTAQASSSAASNNHQVGSGNDPWSAWSASKSGNWESSEGWGAQPEGAGAQRNTNTPNNWDTAFGHPQAYQGPATGDDDDWDEDWDGPKSSSYFKDSESADAGGAQRGNSRASSSSMKI
modifications: left off: a dimerising Fc or GST

Key:
Assay type in all cases: cell-based
pSmad3 = biological target: T1, pSmad3 (Mus musculus, UniProt Q8BUN5); test: Nuclear import of pSmad3 (nuclear fractions Western, immunofluorescence) in AKR-2B cells; conditions: 90 minutes transduction, TGFβ 5 ng/mL 1 hour
T1 construct: endogenous in cells; host or cells: AKR-2B cells
T1 sequence (Q8BUN5 whole entry): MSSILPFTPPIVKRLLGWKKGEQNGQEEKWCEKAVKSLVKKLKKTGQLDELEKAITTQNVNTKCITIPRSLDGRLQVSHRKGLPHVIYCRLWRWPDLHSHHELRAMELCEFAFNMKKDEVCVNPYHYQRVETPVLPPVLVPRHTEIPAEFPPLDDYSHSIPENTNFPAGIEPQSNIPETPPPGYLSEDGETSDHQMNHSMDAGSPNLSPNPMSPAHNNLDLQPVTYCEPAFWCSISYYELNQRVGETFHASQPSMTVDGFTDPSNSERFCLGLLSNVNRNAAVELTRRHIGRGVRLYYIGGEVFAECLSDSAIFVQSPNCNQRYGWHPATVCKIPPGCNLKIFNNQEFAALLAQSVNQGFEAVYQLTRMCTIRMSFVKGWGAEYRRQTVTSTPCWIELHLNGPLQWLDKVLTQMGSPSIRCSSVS
Description: FIGS. 1A-C. SH3 domain of sorting nexin 9 (SNX9) specifically binds pSmad3 and prevents nuclear import. (A) Cartoon depicting domains in full length (FL) SNX9 and constructs used for GST pull down assays. Lysates from AKR-2B cells untreated (−) or stimulated (+) for 45 minutes with 5 ng/mL TGFβ were incubated with GST beads or the indicated fusion polypeptides immobilized on GST beads. Bound polypeptides were eluted and assessed by Western analysis for pSmad3 or pSmad2. Cell lysate reflects signal obtained from 10 μg total protein. (B) AKR-2B cells were transduced for 90 minutes with the indicated concentrations of the TAT-SNX9(SH3) fusion polypeptides. […] Quantitation of nuclear pSmads was performed with Image J software and represents the mean+/−sd of two experiments (Right). […] Quantitation of nuclear Smad3 from 30 cells in each of two experiments (Right).
(§1) FIGS. 3A-E. Inhibition of Smad3 signaling by a defined region of the SH3 domain in SNX9. […] (B) Nuclear fractions were prepared and assessed as in FIG. 1B following transduction with the indicated TAT-SNX9(SH3) fusion polypeptide (Left). Quantitation (mean+/−sd) of nuclear pSmad2 or pSmad3 from 2 experiments (Right). (C) Immunofluorescence of nuclear Smad3 was determined as in FIG. 1C from 30 cells in each of two experiments in the absence (−) or presence (+) of 5 ng/mL TGFβ and the indicated TAT-SNX9(SH3) fusion polypeptide (1.5 μM). […]

pSmad2 = biological target: T2, pSmad2 (Mus musculus, UniProt Q62432); test: Nuclear import of pSmad2 (nuclear fractions Western) in AKR-2B cells; conditions: 90 minutes transduction, TGFβ 5 ng/mL 1 hour
T2 construct: nuclear fractions were isolated, and Western blotted for pSmad2, pSmad3, or histone deacetylase 1 (HDAC); endogenous in cells; host or cells: AKR-2B cells
T2 sequence (Q62432 whole entry): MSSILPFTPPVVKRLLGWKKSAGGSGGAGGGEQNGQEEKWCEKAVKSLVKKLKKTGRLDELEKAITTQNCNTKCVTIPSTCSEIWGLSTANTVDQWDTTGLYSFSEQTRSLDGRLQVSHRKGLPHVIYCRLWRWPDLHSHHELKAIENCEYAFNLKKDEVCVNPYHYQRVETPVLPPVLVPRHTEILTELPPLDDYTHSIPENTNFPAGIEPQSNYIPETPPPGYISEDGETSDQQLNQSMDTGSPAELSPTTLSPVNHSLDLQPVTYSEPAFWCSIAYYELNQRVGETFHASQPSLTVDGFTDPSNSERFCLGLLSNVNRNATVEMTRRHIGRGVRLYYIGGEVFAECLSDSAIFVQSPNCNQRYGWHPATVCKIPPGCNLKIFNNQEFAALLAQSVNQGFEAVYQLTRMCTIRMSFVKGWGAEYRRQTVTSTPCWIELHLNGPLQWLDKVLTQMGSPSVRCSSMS
Description: FIGS. 1A-C. SH3 domain of sorting nexin 9 (SNX9) specifically binds pSmad3 and prevents nuclear import. (A) Cartoon depicting domains in full length (FL) SNX9 and constructs used for GST pull down assays. Lysates from AKR-2B cells untreated (−) or stimulated (+) for 45 minutes with 5 ng/mL TGFβ were incubated with GST beads or the indicated fusion polypeptides immobilized on GST beads. Bound polypeptides were eluted and assessed by Western analysis for pSmad3 or pSmad2. Cell lysate reflects signal obtained from 10 μg total protein. (B) AKR-2B cells were transduced for 90 minutes with the indicated concentrations of the TAT-SNX9(SH3) fusion polypeptides. Following washing and 1 hour TGFβ (5 ng/mL) treatment, nuclear fractions were isolated, and Western blotted for pSmad2, pSmad3, or histone deacetylase 1 (HDAC) (Left). Quantitation of nuclear pSmads was performed with Image J software and represents the mean+/−sd of two experiments (Right). (C) AKR-2B cells were transduced as in (B) with TAT-SH3 or TAT-LC (1.8 μM) and treated+/−TGFβ (5 ng/mL) for 1 hour. Immunofluorescence for Smad3 or the HA-tagged TAT-SNX9(SH3) fusion polypeptide was performed, and nuclei were stained with DAPI (Left panels). Quantitation of nuclear Smad3 from 30 cells in each of two experiments (Right).
AKR-2B cells were grown in DMEM supplemented with 10% fetal bovine serum (FBS). […]

Smad3 (3TP) reporter = test: Smad3 (3TP) luciferase reporter assay in AKR-2B cells; conditions: 1.5 μM polypeptide, 5 ng/mL TGFβ, 12 hours
Description: (§2) FIGS. 2A-C. TAT-SH3 inhibits Smad3-dependent responses. (A) AKR-2B cells were transiently transfected with a Smad3 (3TP), Smad2 (ARE), or Smad1/5/8 (BRE) reporter construct, and luciferase activity determined following 12 hours incubation in the absence (−) or presence (+) of the indicated ligand (5 ng/mL TGFβ; 10 ng/mL BMP4) or TAT-SNX9(SH3) fusion polypeptide (1.5 μM). Data represent the mean+/−SEM of three experiments. (B) RT-PCR analysis of Smad3 (PAI-1 and CTGF) and Smad2 (MMP2) responsive gene following 24 hour treatment of AKR-2B cells with the indicated concentration of TAT-SNX9(SH3) fusion polypeptide or 5 ng/mL TGFβ. Loading was verified by GAPDH expression. (C) Soft agar colony formation was performed following seven days growth in the presence (+) or absence (−) of TGFβ (10 ng/mL) or the indicated TAT-SNX9(SH3) fusion polypeptide (1.5 μM). Data reflects the mean+/−sd of triplicate wells from three experiments.
(§3) For luciferase assays, 2×10^5 cells were plated in six well plates containing 10% FBS/DMEM. […] Cells were harvested in 200 μL of reporter lysis buffer (Promega, Madison, Wis.), and luciferase activity was determined in a Berthold Lumat 9507 luminometer after normalization for transfection efficiency with β-galactosidase.

Smad2 (ARE) reporter = test: Smad2 (ARE) luciferase reporter assay in AKR-2B cells; conditions: 1.5 μM polypeptide, 5 ng/mL TGFβ, 12 hours
Description: as §2, §3

Smad1/5/8 (BRE) reporter = test: Smad1/5/8 BMP (BRE) luciferase reporter assay in AKR-2B cells; conditions: 1.5 μM polypeptide, 10 ng/mL BMP4, 12 hours
Description: as §2
FIGS. 4A-E. A point mutant of TAT-SH3-2 abolishes the inhibitory action on Smad3 responses. […] (E) AKR-2B cells were transiently transfected with a BMP (BRE), EGF (SRE), or PDGF (MMP-1) reporter construct and luciferase activity determined following 12 hour incubation in the absence (−) or presence (+) of the indicated ligand (10 ng/mL BMP4, EGF, or PDGF), inhibitor (10 μM Dorsomophin; 3 μM Lapatinib; 2 μM CP868) or TAT-SNX9(SH3) fusion polypeptide (1.5 μM). […]

[1] = system: Smad3 targets (PAI-1, CTGF, Smad7); test: RT-PCR/qPCR/Western of Smad3 responsive genes in AKR-2B cells; conditions: 5 ng/mL TGFβ, 24 hours
Description: as §2, with “Data reflects the mean+/−sd of triplicate wells from three experiments.” left out
as §1

[2] = system: Smad2 targets (MMP2, Goosecoid, Furin, MixL); test: RT-PCR/qPCR of Smad2 responsive genes in AKR-2B cells; conditions: 5 ng/mL TGFβ, 24 hours
Description: as §2, with “Data reflects the mean+/−sd of triplicate wells from three experiments.” left out
as §1

AKR-2B cells = test: Soft agar colony formation (anchorage-independent growth, AIG); conditions: 1.5 μM polypeptide, TGFβ 10 ng/mL, seven days
Description: as §2, with “Data reflects the mean+/−sd of triplicate wells from three experiments.” left out
as §1

Molecule	nuclear import of pSmad3 (pSmad3)	nuclear import of pSmad2 (pSmad2)	Smad3-dependent luciferase activity inhibited (Smad3 (3TP) reporter)	Smad2 signaling (luciferase) (Smad2 (ARE) reporter)	Smad1/5/8 (i.e., BMP) signaling (luciferase) (Smad1/5/8 (BRE) reporter)	TGFβ induction of Smad3 targets / Smad3-dependent transcriptional responses [1]	induction of Smad2 targets [2]	TGFβ-stimulated anchorage-independent growth in soft agar (AIG) (AKR-2B cells)
B1	inhibited nuclear import of pSmad3 in a dose-dependent manner	no effect	about 70%	no discernible effect	no discernible effect	inhibited	unaffected	inhibited
B2	ineffective in modulating nuclear translocation					inert		inert
